The text below walks through data of a protein production outcome set (Wang et al. 2014).

This data set in a line: label from the status in PepcDB records.
For the sequence “MQVELIIKNLKVYNSYFKKFIKSDVLINEGKFLHIGKGYEDRLWSENIIDGEDKYIIPGLIDIHMHIESSMTIPREFSKAAIKHGVTTVVADPHEIANVFGVRGIEEFIKFKGNLDIFYGIPSSVPSTSSSLETTGEKITHNEVKRLLEYDNIICLGEVMNFKDLIEDDDSNINKIINISKEKNIPLEGHCPKIQGVDLSLYIYRGVNGDHTQQSVGSLQEKIQNGMFIEMQHKSMTLENIKFLIENNLYEHFALVTDDVMADKLVKGHLDEILKEAVKLGMSIENAIYASTYTPARRMNLLDRGTIAPGKLADFILLDSIEDFNIYEVYKNGEMVFNRDKGLKEEFFEDKSKLDYRFYNSIELNNITKESLEVKVPNKYKNKVNCRTMKVLKNTTFTEEGEVTLNVYNNILQWEKSSCALIAVFERYGKNNNISFGLVEGEIIKEGAIATTWAHDHHNLMVMGRNISDMTIAANEVINSRGGYVVSKNNEVIAKLELPIGGIISDEPIEIIGEKLGEVRNAMRDLGYNHMNEIMSFSTLSLPVSPALKITDKGLIDVKKGSIVSLFKKGLY”, the protein production result is reported as “failed”.
The same measure for “MQVIAFIAPLIDKGMDPLTGVPIRQEVPRLMERTFQENQAETYVLFLINLDRFKLVNDSLGEGYGDQVLQTLVRRLLWQLPNQQWIARVSGDEFIACAAIKGELPKKETLATYISSIIQQPFQVDEVQFTMTASIGAAVYPMDGKSVEMIWNSLERALRHAKARGGNCVSWFCQELKDEWIHPFRLENDLRRAVENQELEHHHHHH”: “failed”; for “MQVPGHAFNPVAAPYFPDHLAFLDGPMNARAQGLPRRLENIVLVADLAGTAVFAVEGAISAMRAQLDLLGVMVIAFIVALGGGVTRDLLIGATPPKAVADWRYPALALLMGGLAFVARDWVLGWSGPLLILLDAAGLGLFAVAGTQKAQNFGISPFVSMLMGTVTGVGGGVIRDIVLARIPLVLQVDLYASSAFVGAASLVIARRLGVPPLWSAWLAGTVCFALRMLSVRYGWQLPKAL”: “failed”; for “MQVTLIQGLLIGLFALIAGIDFWLEGLYIFRPMIVCTVTGAILGNLTLGIIAGGLTELAFAGLTPVGGTQPPNPIMAGIMTVVLAYTTGKTPSTAIGLALPFSILMQYIILFYYSAFSVLTKKLDAYAANVETKKFTRLALLPTVLVALTYGVIAFLCVYGAQEPMKALVNSMPVWLSHGFEIAGNILPAVGFGLLLKSMLKAEYVPYLLLGFTAACFIKFGNLMPVAVIGISLAFIEFYHNKKQTDNEKKLKSMIESASGNGDDGDGI”: “failed”.
With “MQYRIRRENEAPEAKNAGETLWERDMMREVLLSAYRDRRRERMWKNIWRAVSTLILVALIAGIFRKDEAALQLAGNTPHTAVVNLYGEIGNGVEDQVKKLKDGMEAAYKNPQAKAIVIRANSPGGSPVVSNTAFEEIRRLKAQHPGIPVYLVAEDMCASGCYYIAAAADKIYADPSSIVGSIGVIGSSFDATGLMEKIGVKRRVKIAGSNKGMGDPFSPETPEQSKIWEEMLTGIHGEFIKAVKTGRGGRLKFRQYPDVFSGRVYTGADALKVGLVDGLGNIYSVARDVVKAPDVVDYTPKDDFGRILGRRFGAELKASVREALQAVR” the entry was “failed”.
The same measure for “MQYVMSIIGIIAVLGLCFALSNNKSKINFRAIAIMIGFQILIGWFMFATKIGQQIIIFISKVFNKLIKLGTTGVDFLFNGIHRDFVFFLNVLLIIVFFSALLSIFSYLGVLPFIVRVVGGAISKITGLPRVESFHAVNSVFFGSSEALIVIKNDLQHFNKNRMFIICCSAMSSVSASVTASYVMMLDAKYVLAALPLNLFSSLIVCSLLTPVDTKKEDEVIQKFDRTLFGDSFIGAMINGALDGLKVAGIVAALMIAFIGVMEVVNYVISAASGAMGHAVTLQQIFGYVLSPFAFLMGIPTQDIIPAGGIMGTKIVLNEFVAILDLKDTATTLAPRTVGIVTVFLISFASISQIGAIVGTIRALSEKQGSVVSKFGWKMLFASTLASILSATIAGLFI”: “failed”; for “MRAAGRDRAERRMPHTWSFDYFYSLPFWAALLAVAAVVRLAGGSPVLRGLALLATSNALLLAIPGFSAADLALVWAVSGVALASARTLSRSAPGSSRARRVVVVGSVVAILAFLALFKYRFLQGLLLGPFAQVLAPRASSGVVNPLVLVGVSYFSFKAIHVVVETYRGTLGRVEALAFLNYMTFFPAFISGPINRFGDFSEQLASASPALGADLRAGGERIVHGLFKKVVLVPLVMPYLLTNQARPLDQATLLDVATGLYAYALYFFFDFAGYTDLAIGGARIIGIRLPENFRQPFFQKNIRDLWTNWHMTLTSWLVDYVYWPTVRALRNLEYLRTRPVLLSVIGMNVTFVSCGIWHGEAPHFVLWGAYHGLGISVLNVYQRQKKRIRAPRIQRWFASRYSRWLGTFATFNFFAAGLALFVLDLGQIRALLRALVG”: “failed”.
Turning to “MRAASVPFSQRTTCKGRDGFDQFQIAFASAAERDHSCDQGRRQPGGRPPIQVAAVSGFMHRQGKTPMPTLTINGRSLSVDAANDTPLLWAIREQLQMTGTKFGCGAGLCGACTVHVNGEAVRSCQTMVGDVAGKKITTIEGLSAKGDHPLQKAWIAEQVPQCGYCQSGQIMQAASLLAKNANPTKEEVVAHMDGNLCRCMTYSRIQKAIMRAATEMRTASASGNERRPT”, the protein production entry is “failed”.
Regarding “MRAEADPEFAAVAERIHANVGRQGFMNLVGAELSELSRGTCTIAVERRPELLQQHGFFHGGVTAFLVDNATTIAAATSRGQPALTAEYKLNLLSPAVGEKLICRARVIKPGRQVSVVAADVFCVSDGVEKHTATALASIAMLSEDVAAKTKSPAA”, the protein production entry was “failed”.
The same measure for “MRALLLIAALLAPTAALAQQQLPLWPNGAPGFESRKAIPEQAADYWVKSVNNPSITAYLPPKETATGAALIVLPGGGHRILVIHSEGSDVAKVMNPKGVAVFVVKYRLFREEGSPYTIDHARQDAVRAVRYVRAHAAVFGVDPKRIGLMGFSAGGEAVNLAVYQGAANDPKTDAVDAVSARPDFQVLVYPGPLGVPEKVPTDTPPAFIVAANDDECCSAPPVDLLTRFRAAKVPIEFHLFQSGGHAFNMGLRSHKAALKAWPDRLFDWLADNGWLKAG”: “failed”; for “MRAMRWILPLLLAIGVAAPARAASEWAVKDGSVQVKAHADEQGRAVVRASIEIAAPPSVVFGVILDCGRAARMSPGVKRCRVVSRAADGSEVREHTVKWGFFLPALQSRSRLSLQPDREIRFTCIGGDIRACDGFWRLEPLDGGMRTRVTYDLWATAPYAAPAGLVSSLMRRTVPQSLAALRRECEGG”: “failed”.
The same measure for “MRAPGALLARMSRLLLLLLLKVSASSALGVAPASRNETCLGESCAPTVIQRRGRDAWGPGNSARDVLRARAPREEQGAAFLAGPSWDLPAAPGRDPAAGRGAEASAAGPPGPPTRPPGPWRWKGARGQEPSETLGRGNPTALQLFLQISEEEEKGPRGAGISGRSQEQSVKTVPGASDLFYWPRRAGKLQGSHHKPLSKTANGLAGHEGWTIALPGRALAQNGSLGEGIHEPGGPRRGNSTNRRVRLKNPFYPLTQESYGAYAVMCLSVVIFGTGIIGNLAVMCIVCHNYYMRSISNSLLANLAFWDFLIIFFCLPLVIFHELTKKWLLEDFSCKIVPYIEVASLGVTTFTLCALCIDRFRAATNVQMYYEMIENCSSTTAKLAVIWVGALLLALPEVVLRQLSKEDLGFSGRAPAERCIIKISPDLPDTIYVLALTYDSARLWWYFGCYFCLPTLFTITCSLVTARKIRKAEKACTRGNKRQIQLESQMNCTVVALTILYGFCIIPENICNIVTAYMATGVSQQTMDLLNIISQFLLFFKSCVTPVLLFCLCKPFSRAFMECCCCCCEECIQKSSTVTSDDNDNEYTTELELSPFSTIRREMSTFASVGTHC”: “failed”; for “MRCMSDDHTHVQEFFEARAADWDSRFPDDGPAHAAAVAELGLREGDRVLDAGCGTGRALPSLRAAVGSSGVVVGVDLTPAMLAAAARAGRGRDGHLLLADVTRLPLGTESLDAVFAAGLIAHLPEPAENLRELARVVRAGGTLALFHPIGRAALAARQGRQITPDDLRAEANLGPLLAGSGWRMTSYVDEDARFLALAVRVKLEHHHHHH”: “failed”.
With “MRDDVFGQSNSLTRADSAEAWDGVLLGFMAHAAVTPQHLARVLELEPDFALAHAIKGLFMLLLGRREMTPVAIEAMAAAERAAAARAITAREGHYLAALRHWLAGNPSRSVQEFEAILRAHPDDTLAMKLSHATRFVLGDPAGMRRSIERVMPAYAPDHAGRGYLLGCHAFALEETGAYDKAEIAGRQALWMVSDDAWGLHAVAHVHEMKGQSELGLDWLAGREAAWSHCNNFRYHVWWHKALMHLDQGQIDQVFDLYDSAIRKDKTDDYRDISNATSLLSRLELEGVNVGDRWEELADLSAARTEDGCLIFADLHYLLALTGDTREDAISRMLHRIKRDADMAQCDTTRRMADPGLAAAQGLEAFGEGQYGQAFDHLLTARGSMQLAGGSHAQRDVFERITIDAGLRAGRLDAVERVLDDRRAKRGGHEDTYALARRALIEAGRDDRNIHSVPAE”, the protein production result is given as “failed”.
In the case of “MRDFGEILAENRKKKGYSQSDLVNLLSQEGIQVTTKALSKWENNAREPALHVFLTLCQLLDIEDIYESFFGENPYNIMSGLNEEGRNKLIEFADILKASKKFSPLSAKIIPFHHPVEITWEPVSAGTGNYLEDSVKETYDVGHLAPEQTDFGVRISGDSMEPLYHTDDVAWIQKKDSLANGEIGIFYLNGNTYIKELHDEPDGVYLISLNQKYRPIQVLESDSFKIFGKVIGKCKGAEIPGFHLEHHHHHH”, the protein production entry is given as “not failed”.
In the case of “MRDLITNRFTSQRTLREGSVGLLFLLGLGAFGVILLWLNRYTAAGSSYKAVVEFANAGGMQRGATVRYRGVKVGRISQIQPGPNAVEVEIEFAQSNLIIPRDVVIEANQTGLISESIIDITPKSSLPTGQTLPKPLDKNCDNSLIICNNSRLKGQIGISVDALIRSSTDFANTYTNPEFYQRVNRLLETSAQAATSVAALTQDFRGLTKSFQGQLGTFASTANTVQRATNELTVSTTKTVNQFGITADKFGTTATQASRLLSDLNSLLNTNRSSLVSALNNITETSNQLRLTVTNLSPSLNRLTQGELIKNLEALSANAAQASANLRNATESLNDPKNAVLLQQTLDSARLTFENTQKITSDLDELTGDPNFRQNLRQLVNGLSGLVSSTDQIEQQAKLATTLESMKAAADKPNITIPSLATHPSSNAVTIANNQPQVSSQEKLLQQLRDYAEQGSGEDKKQGSREQREELMKTDY”, the protein production result is “failed”.
“MRDYSELEIFEGNPLDKWNDIIFHASKKLSKKELERLLELLALLETFIEKEDLEEKFESFAKALRIDEELQQKIESRKTDIVIQSMANILSGNE”: the protein production result was “not failed”.
As for “MREALRSLLVALQFLTRLPVRLSAMPTPEQFGRAVLCYPLVGVLIGVVLYAAARSLDGTPPLLQAALLLSLWVALSGALHLDGLADMADAWVGGLGDRERTLAIMKDPRSGPVAVVVLVLVLLLKFSALAALLGQGEAGLLPLAPWLARSSLPLLFLTTPYARPGGLGQAIAEHLPARSLPWVLGVSFGLALAFGLAGLLALLVTLMLFAWLRSRFLARLGGTTGDTAGALVELTECAVLVALAL”, the protein production entry is recorded as “failed”.
The same measure for “MREDNPNWFLRWEEELPSPEELIPISQTLITPHLALAFQIGSPNHHLGSKRTTAIYHQKLQSSTTPTTPTPTPPPMMMNSDFGGGDSTDLGSGSIGGEPARTLKRPRLVWTPQLHKRFVDAVGHLGIKNAVPKTIMQLMSVEGLTRENVASHLQKYRLYLRRMQGGNGNGITGGHVIVSDSATDRLFASSPVPAHFLSPDYLMPPLEHSYMGKHVITQQNQVVRNLRYEDSEYGHGSMKMLKLFPAGN”: “not failed”; for “MREETKCALIIDESLPLGLIANTAAILGAALGKNKPDLIGETVTDGSGIDHLGIVKIPIPILKGNAELLHQLSQKLLTDEFNDILTVDFTDVAQSIHTYEAYIEAFQSTAASDYRYFGIGICGDKKKVARLTGSLGLLRLEHHHHHH”: “not failed”.
